Results on six molecules are retold here after patent publication US20150361183A1 (IMPERIAL INNOVATIONS, published 2015).

B6: CFHR1 (complement factor H-related protein 1), purified from serum (other)
chain: EATFCDFPKINHGILYDEEKYKPFSQVPTGEVFYYSCEYNFVSPSKSFWTRITCTEEGWSPTPKCLRLCFFPFVENGHSESSGQTHLEGDTVQIICNTGYRLQNNENNISCVERGWSTPPKCRSTDTSCVNPPTVQNAHILSRQMSKYPSGERVRYECRSPYEMFGDEEVMCLNGNWTEPPQCKDSTGKCGPPPPIDNGDITSFPLSVYAPASSVEYQCQNLYQLEGNKRITCRNGQWSEPPKCLHPCVISREIMENYNIALRWTAKQKLYLRTGESAEFVCKRGYRLSSRSHTLRTTCWDGKLEYPTCAKR

Series [1] concerns the target T1, C3b (UniProt P01024 749-1663; P01024 23-667). Put plainly: cell-based or functional assay.
Series [2] deals with B6. Put plainly: serum immunoprecipitation with anti-CFHR2, western blot with MBC125. From the text: Serum was immunoprecipitated using a specific anti-CFHR2 antibody (MBC22) and western blot analysis of the immunoprecipitated material with anti-CFHR1/2/5 antibody (MBC125) performed. […] Lane 2 and 4 represent control sera in which no anti-CFHR2 antibody was used. The detection of CFHR2-CFHR5 heterodimers was not possible due to non-specific bands in the CFHR5 region. […] Serum was immunoprecipitated using an anti-CFHR5 antibody and western blot analysis of the immunoprecipitated material with anti-CFHR1/2/5 antibody performed. […] Lane 2 and 4 represent control sera in which no anti-CFHR5 antibody was used. The detection of CFHR2-CFHR5 heterodimers was not possible due to non-specific bands in the CFHR2 region. FIG. 2(d) ELISA assay to detect CFHR2-CFHR5 heterodimers in vivo. Using an anti-CFHR5 capture antibody and an anti-CFHR2 detection antibody, positive signal was demonstrable in two individuals homozygous for the ΔCFHR3-1 deletion polymorphism. A much weaker signal was detectable in individuals without this deletion.
Detection of heterodimers CFHR1-CFHR2 and CFHR1-CFHR5 were identified by immunoprecipitation. […]
On the technique in general: Immunoblotting shows a protein as a band on a membrane.

The target in series [3] is T2, iC3b (UniProt P01024 23-667; P01024 749-1303; P01024 1321-1663).
T2 construct: also called thioester-coupled iC3b
Put plainly: SPR steady state, iC3b on chip; reference CFHR5.

Series [4] concerns the molecule itself. Kind of series: size exclusion chromatography. The text has this:
FIG. 3(a) Generation of a CFHR5 protein lacking critical amino acids within the dimerisation motif. Monomeric CFHR5 (CFHR5^{dimer mutant}) was generated by mutating the three stabilizing amino acids (Tyr34Ser, Ser36 Tyr, Tyr39Glu) within the dimerisation motif to the corresponding amino acids within CFH. FIG. 3(b) Analysis of recombinant CFHR5 and CFHR5^{dimer mutant} using SDS PAGE gel electrophoresis. Both the wild type and dimer mutants were purified to single homogenous species as visualized by denaturing electrophoresis. FIG. 3(c) Analysis of recombinant CFHR5 and CFHR5^{dimer mutant} using size exclusion chromatography. Size exclusion chromatography was performed on a Superdex200 10/30 column (GE Healthcare) equilibrated in 50 mM Tris.HCl, pH 7.5, 150 mM NaCl at 0.4 ml/min. The column was followed in-line by an Optilab-Rex refractive index monitor (Wyatt Technologies). The CFHR5 dimer elutes early from the column (blue trace) whilst the monomeric CFHR5^{dimer mutant} protein elutes at a larger column volume (red trace). FIG. 3(d) Interaction of CFHR5 and CFHR5^{dimer mutant} with renal-bound mouse C3 in vivo.
A general note: Size exclusion chromatography separates by hydrodynamic size, large species first.

Series [5] concerns the target T1, C3b. Put plainly: SPR steady state, thioester-coupled (clustered) C3b against amine-coupled C3b. As for the experimental part: FIG. 9(a) Binding of CFHR5 and CFH to low levels of C3b coupled through amine groups (no clustering of C3b). CFH (from 4 μM) or CFHR5 (from 6.6 μM) were flowed across immobilized C3b (400 RU) at different concentrations. Affinity was calculated by steady state analysis. Analysis assumes a 1:1 binding interaction and for CFHR5 calculations used molarity of binding sites. FIG. 9(b) Binding to C3b coupled through the thiolester. C3b (150RU) was amine-coupled to a CM5 Biacore chip and used as a nidus for convertase formation. Further C3b was deposited on the chip surface by flowing fB and fD to form C3bBb followed by C3 as convertase substrate. […] CFH (from 4 μM) and CFHR5 (from 1.35 μM) were flowed across the surface and binding was analysed at steady state. Binding of CFH was very heterogeneous, likely due to crosslinking between multiple C3b-binding sites on fH and clusters of deposited C3b molecules. Affinity could not be calculated under these conditions. […] Data were calculated using the following values: CFH, mass 155 kDa, extinction coefficient 1.95 cm-1 (mg/mL)-1; CFHR5, mass 65 kDa, extinction coefficient 1.55 cm-1 (mg/mL)-1;
All data in FIGS. 9-11 were gathered using a Biacore T100 (GE Healthcare). […] For kinetic studies, samples were injected using the KINJECT command, in HBS/P (10 mM HEPES pH7.4, 150 mM NaCl, 0.05% surfactant-P20) flowed at 30 μl/min and analysed at 25° C. […]

T1 sequence (P01024 749-1663 limits assumed, chain 1 of 2): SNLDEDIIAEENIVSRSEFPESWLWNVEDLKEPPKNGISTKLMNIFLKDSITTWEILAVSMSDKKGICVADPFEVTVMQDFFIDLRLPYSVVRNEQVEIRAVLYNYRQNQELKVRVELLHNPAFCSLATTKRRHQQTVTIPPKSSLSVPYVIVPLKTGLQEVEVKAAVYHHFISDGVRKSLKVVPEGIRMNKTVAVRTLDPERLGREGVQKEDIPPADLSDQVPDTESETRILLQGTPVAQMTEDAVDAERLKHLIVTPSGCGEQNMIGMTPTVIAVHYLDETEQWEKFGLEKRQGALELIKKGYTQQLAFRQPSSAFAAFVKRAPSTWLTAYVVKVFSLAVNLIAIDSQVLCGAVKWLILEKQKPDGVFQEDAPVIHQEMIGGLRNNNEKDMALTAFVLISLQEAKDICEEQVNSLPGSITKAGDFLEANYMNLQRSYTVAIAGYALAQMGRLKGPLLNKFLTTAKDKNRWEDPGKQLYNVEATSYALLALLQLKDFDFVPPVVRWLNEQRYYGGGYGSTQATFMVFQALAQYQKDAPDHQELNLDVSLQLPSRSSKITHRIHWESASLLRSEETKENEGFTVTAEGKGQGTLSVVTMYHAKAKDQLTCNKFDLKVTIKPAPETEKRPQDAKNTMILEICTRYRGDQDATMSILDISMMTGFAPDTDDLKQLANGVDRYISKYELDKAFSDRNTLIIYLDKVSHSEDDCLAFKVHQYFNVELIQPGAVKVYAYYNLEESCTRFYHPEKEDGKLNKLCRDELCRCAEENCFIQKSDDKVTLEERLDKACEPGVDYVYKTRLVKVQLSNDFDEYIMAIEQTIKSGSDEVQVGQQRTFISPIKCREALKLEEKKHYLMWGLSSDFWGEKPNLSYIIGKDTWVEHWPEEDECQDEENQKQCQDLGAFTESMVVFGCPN
T1 sequence (P01024 23-667 limits assumed, chain 2 of 2): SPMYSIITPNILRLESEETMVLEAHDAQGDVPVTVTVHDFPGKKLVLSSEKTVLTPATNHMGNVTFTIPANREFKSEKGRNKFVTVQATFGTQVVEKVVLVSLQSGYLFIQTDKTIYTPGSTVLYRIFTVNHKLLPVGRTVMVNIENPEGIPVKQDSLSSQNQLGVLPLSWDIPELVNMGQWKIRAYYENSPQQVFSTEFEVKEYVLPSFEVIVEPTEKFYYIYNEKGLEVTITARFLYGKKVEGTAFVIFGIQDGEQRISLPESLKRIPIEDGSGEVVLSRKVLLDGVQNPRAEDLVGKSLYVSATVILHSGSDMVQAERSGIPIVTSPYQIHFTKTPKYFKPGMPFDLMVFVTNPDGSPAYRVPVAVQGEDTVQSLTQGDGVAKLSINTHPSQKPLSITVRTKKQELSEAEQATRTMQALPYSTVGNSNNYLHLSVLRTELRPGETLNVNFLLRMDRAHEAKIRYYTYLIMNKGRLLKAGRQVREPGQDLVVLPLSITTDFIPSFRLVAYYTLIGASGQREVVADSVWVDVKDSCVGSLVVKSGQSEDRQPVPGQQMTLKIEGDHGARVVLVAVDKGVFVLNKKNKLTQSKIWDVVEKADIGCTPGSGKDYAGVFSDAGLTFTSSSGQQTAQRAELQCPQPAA
T2 sequence (P01024 23-667, chain 1 of 3): as the sequence (P01024 23-667 limits assumed, chain 2 of 2) above
T2 sequence (P01024 749-1303, chain 2 of 3): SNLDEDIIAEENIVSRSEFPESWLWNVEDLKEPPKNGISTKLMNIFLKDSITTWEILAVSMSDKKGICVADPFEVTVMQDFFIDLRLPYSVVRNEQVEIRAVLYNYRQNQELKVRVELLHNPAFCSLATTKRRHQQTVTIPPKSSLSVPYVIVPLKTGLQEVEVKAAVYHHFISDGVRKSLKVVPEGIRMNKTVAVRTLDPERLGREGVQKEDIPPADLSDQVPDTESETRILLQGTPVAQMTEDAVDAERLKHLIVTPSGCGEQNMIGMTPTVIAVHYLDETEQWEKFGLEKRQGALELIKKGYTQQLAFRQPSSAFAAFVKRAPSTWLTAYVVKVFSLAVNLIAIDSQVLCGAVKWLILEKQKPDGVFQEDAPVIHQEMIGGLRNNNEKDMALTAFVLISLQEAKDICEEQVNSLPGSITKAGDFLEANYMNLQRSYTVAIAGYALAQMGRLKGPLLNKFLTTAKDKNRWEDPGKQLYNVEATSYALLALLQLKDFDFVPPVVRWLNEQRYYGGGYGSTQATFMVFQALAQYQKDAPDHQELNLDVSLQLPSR
T2 sequence (P01024 1321-1663, chain 3 of 3): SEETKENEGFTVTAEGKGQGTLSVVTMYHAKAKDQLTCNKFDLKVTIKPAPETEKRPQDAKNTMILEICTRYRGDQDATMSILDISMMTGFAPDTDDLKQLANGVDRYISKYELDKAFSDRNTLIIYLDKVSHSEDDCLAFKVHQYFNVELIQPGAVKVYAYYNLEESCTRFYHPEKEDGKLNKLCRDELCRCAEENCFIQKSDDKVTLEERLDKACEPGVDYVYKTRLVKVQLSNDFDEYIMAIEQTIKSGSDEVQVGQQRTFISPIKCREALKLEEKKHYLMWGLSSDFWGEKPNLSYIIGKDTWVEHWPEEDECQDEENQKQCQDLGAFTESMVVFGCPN

B1: CFHR234 (recombinant CFHR2 domains 3-4) (other)
chain: EKCGPPPPIDNGDITSFLLSVYAPGSSVEYQCQNLYQLEGNNQITCRNGQWSEPPKCLDPCVISQEIMEKYNIKLKWTNQQKLYSRTGDIVEFVCKSGYHPTKSHSFRAMCQNGKLVYPSCEEK
Consider B1, for which the “IC50, dose-dependent increase of lysis in the CFH-dependent alternative pathway haemolytic assay (guinea-pig erythrocytes, 20% normal human serum plus CFH)” value in series [1] is 4700 nM.

B2: CFHR2 (complement factor H-related protein 2), native in serum (other)
chain: EAMFCDFPKINHGILYDEEKYKPFSQVPTGEVFYYSCEYNFVSPSKSFWTRITCAEEGWSPTPKCLRLCFFPFVENGHSESSGQTHLEGDTVQIICNTGYRLQNNENNISCVERGWSTPPKCRSTISAEKCGPPPPIDNGDITSFLLSVYAPGSSVEYQCQNLYQLEGNNQITCRNGQWSEPPKCLDPCVISQEIMEKYNIKLKWTNQQKLYSRTGDIVEFVCKSGYHPTKSHSFRAMCQNGKLVYPSCEEK
notes: Native serum protein
On to B2, for which, in series [2], the binding result was “binds”.

B3: Complement factor H (CFH) (other, UniProt P08603 19-1231, looked up)
chain: EDCNELPPRRNTEILTGSWSDQTYPEGTQAIYKCRPGYRSLGNVIMVCRKGEWVALNPLRKCQKRPCGHPGDTPFGTFTLTGGNVFEYGVKAVYTCNEGYQLLGEINYRECDTDGWTNDIPICEVVKCLPVTAPENGKIVSSAMEPDREYHFGQAVRFVCNSGYKIEGDEEMHCSDDGFWSKEKPKCVEISCKSPDVINGSPISQKIIYKENERFQYKCNMGYEYSERGDAVCTESGWRPLPSCEEKSCDNPYIPNGDYSPLRIKHRTGDEITYQCRNGFYPATRGNTAKCTSTGWIPAPRCTLKPCDYPDIKHGGLYHENMRRPYFPVAVGKYYSYYCDEHFETPSGSYWDHIHCTQDGWSPAVPCLRKCYFPYLENGYNQNYGRKFVQGKSIDVACHPGYALPKAQTTVTCMENGWSPTPRCIRVKTCSKSSIDIENGFISESQYTYALKEKAKYQCKLGYVTADGETSGSITCGKDGWSAQPTCIKSCDIPVFMNARTKNDFTWFKLNDTLDYECHDGYESNTGSTTGSIVCGYNGWSDLPICYERECELPKIDVHLVPDRKKDQYKVGEVLKFSCKPGFTIVGPNSVQCYHFGLSPDLPICKEQVQSCGPPPELLNGNVKEKTKEEYGHSEVVEYYCNPRFLMKGPNKIQCVDGEWTTLPVCIVEESTCGDIPELEHGWAQLSSPPYYYGDSVEFNCSESFTMIGHRSITCIHGVWTQLPQCVAIDKLKKCKSSNLIILEEHLKNKKEFDHNSNIRYRCRGKEGWIHTVCINGRWDPEVNCSMAQIQLCPPPPQIPNSHNMTTTLNYRDGEKVSVLCQENYLIQEGEEITCKDGRWQSIPLCVEKIPCSQPPQIEHGTINSSRSSQESYAHGTKLSYTCEGGFRISEENETTCYMGKWSSPPQCEGLPCKSPPEISHGVVAHMSDSYQYGEEVTYKCFEGFGIDGPAIAKCLGEKWSHPPSCIKTDCLSLPSFENAIPMGEKKDVYKAGEQVTYTCATYYKMDGASNVTCINSRWTGRPTCRDTSCVNPPTVQNAYIVSRQMSKYPSGERVRYQCRSPYEMFGDEEVMCLNGNWTEPPQCKDSTGKCGPPPPIDNGDITSFPLSVYAPASSVEYQCQNLYQLEGNKRITCRNGQWSEPPKCLHPCVISREIMENYNIALRWTAKQKLYSRTGESVEFVCKRGYRLSSRSHTLRTTCWDGKLEYPTCAKR
For B3, the “fold weaker binding than CFHR5” value in series [3] came out at 10 fold.

B4: CFHR1345 (recombinant CFHR1 domains 3-5) (other)
chain: TSCVNPPTVQNAHILSRQMSKYPSGERVRYECRSPYEMFGDEEVMCLNGNWTEPPQCKDSTGKCGPPPPIDNGDITSFPLSVYAPASSVEYQCQNLYQLEGNKRITCRNGQWSEPPKCLHPCVISREIMENYNIALRWTAKQKLYLRTGESAEFVCKRGYRLSSRSHTLRTTCWDGKLEYPTCAKR
Regarding B4, in series [1], the “IC50, dose-dependent increase of lysis in the CFH-dependent alternative pathway haemolytic assay (guinea-pig erythrocytes, 20% normal human serum plus CFH)” value came out at 3600 nM.

B5: CFHR5 (complement factor H-related protein 5), wild type (other)
chain: EGTLCDFPKIHHGFLYDEEDYNPFSQVPTGEVFYYSCEYNFVSPSKSFWTRITCTEEGWSPTPKCLRMCSFPFVKNGHSESSGLIHLEGDTVQIICNTGYSLQNNEKNISCVERGWSTPPICSFTKGECHVPILEANVDAQPKKESYKVGDVLKFSCRKNLIRVGSDSVQCYQFGWSPNFPTCKGQVRSCGPPPQLSNGEVKEIRKEEYGHNEVVEYDCNPNFIINGPKKIQCVDGEWTTLPTCVEQVKTCGYIPELEYGYVQPSVPPYQHGVSVEVNCRNEYAMIGNNMITCINGIWTELPMCVATHQLKRCKIAGVNIKTLLKLSGKEFNHNSRIRYRCSDIFRYRHSVCINGKWNPEVDCTEKREQFCPPPPQIPNAQNMTTTVNYQDGEKVAVLCKENYLLPEAKEIVCKDGRWQSLPRCVESTAYCGPPPSINNGDTTSFPLSVYPPGSTVTYRCQSFYKLQGSVTVTCRNKQWSEPPRCLDPCVVSEENMNKNNIQLKWRNDGKLYAKTGDAVEFQCKFPHKAMISSPPFRAICQEGKFEYPICE
notes: Recombinant full-length protein from HEK293 cells, a dimer by size exclusion; The same id is used for native serum CFHR5 in the heterodimer experiments; also called recombinant CFHR5; wild-type CFHR5
With B5, the “IC50, dose-dependent increase of lysis in the CFH-dependent alternative pathway haemolytic assay (guinea-pig erythrocytes, 20% normal human serum plus CFH)” value in series [1] was determined as 150 nM. Besides, in series [4], the binding result is reported as “binds”. Also, the “fold tighter binding to thioester-coupled C3b than to amine-coupled C3b” value in series [5] worked out at 10 fold.

In the case of B6, the “IC50, dose-dependent increase of lysis in the CFH-dependent alternative pathway haemolytic assay (guinea-pig erythrocytes, 20% normal human serum plus CFH)” value in series [1] stood at 700 nM.
